The series deals with the molecule itself. The series can be described thus: AUC; sedimentation equilibrium, 20 °C, 25 mM Tris-HCl pH 8.0, 50 mM NaCl with and without 20 mM EDTA; 13, 33 and 50 μM protein; 25,000, 35,000 and 45,000 rpm; monomer-dimer model, dimer to monomers.

B1: AYEdes (N-terminal His6 tag followed only by the 70 designed residues of AYEdesign) (other)
chain: KTIFVIVPTNEEQVAFLEALAKQDELNFDWQNPPTEPGQPVVILIPSDMVEWFLEMLKAKGIPFTVYVEE
What is called Kd is the concentration at which binding is half-saturated. Take B1: the Kd was roughly 150 µM.

(Values after paper PMC3764424, “High-resolution Structural and Thermodynamic Analysis of Extreme Stabilization of Human Procarboxypeptidase by Computational Protein Design” (Journal of Molecular Biology, 2007).)
